Experimental data: patent US20030143158A1 (DYAX, published 2003)
Ends that are not written are not given here. fluorescein = fluorescein label on the lysine side chain

T1: fibrin (UniProt P02671 36-629; P02675 45-491; P02679 27-437, limits assumed)
T1 construct: Polymerised fibrin formed on 96-well plates from fibrinogen and thrombin; also called dried fibrin; fibrin target
T1 sequence (looked up) 1: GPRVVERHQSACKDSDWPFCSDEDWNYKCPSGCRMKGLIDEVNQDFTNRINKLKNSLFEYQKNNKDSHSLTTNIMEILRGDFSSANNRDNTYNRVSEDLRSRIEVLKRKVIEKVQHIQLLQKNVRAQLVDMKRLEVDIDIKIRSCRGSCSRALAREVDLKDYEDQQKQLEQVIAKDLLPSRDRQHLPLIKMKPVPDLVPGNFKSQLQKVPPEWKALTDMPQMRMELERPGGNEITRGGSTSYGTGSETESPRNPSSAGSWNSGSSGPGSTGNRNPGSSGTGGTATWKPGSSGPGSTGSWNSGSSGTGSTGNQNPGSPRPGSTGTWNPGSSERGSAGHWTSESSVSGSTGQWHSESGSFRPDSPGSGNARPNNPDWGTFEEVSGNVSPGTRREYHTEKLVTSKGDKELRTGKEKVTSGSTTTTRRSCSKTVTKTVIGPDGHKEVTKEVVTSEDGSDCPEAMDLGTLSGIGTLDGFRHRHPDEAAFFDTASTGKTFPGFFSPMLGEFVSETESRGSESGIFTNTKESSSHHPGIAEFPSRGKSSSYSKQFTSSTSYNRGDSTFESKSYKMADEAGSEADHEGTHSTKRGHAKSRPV
T1 sequence (looked up) 2: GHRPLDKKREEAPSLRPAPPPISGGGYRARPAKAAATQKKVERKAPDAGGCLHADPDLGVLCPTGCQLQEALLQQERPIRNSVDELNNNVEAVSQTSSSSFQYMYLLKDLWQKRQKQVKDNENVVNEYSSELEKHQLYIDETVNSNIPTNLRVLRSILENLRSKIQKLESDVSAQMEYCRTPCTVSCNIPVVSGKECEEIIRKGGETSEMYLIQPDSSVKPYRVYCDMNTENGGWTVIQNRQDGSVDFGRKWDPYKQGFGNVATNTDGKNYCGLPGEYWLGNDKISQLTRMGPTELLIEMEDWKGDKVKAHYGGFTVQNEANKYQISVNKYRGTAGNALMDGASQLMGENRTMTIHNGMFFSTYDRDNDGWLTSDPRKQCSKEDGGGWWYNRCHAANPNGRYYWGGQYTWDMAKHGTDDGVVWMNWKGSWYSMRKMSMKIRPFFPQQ
T1 sequence (looked up) 3: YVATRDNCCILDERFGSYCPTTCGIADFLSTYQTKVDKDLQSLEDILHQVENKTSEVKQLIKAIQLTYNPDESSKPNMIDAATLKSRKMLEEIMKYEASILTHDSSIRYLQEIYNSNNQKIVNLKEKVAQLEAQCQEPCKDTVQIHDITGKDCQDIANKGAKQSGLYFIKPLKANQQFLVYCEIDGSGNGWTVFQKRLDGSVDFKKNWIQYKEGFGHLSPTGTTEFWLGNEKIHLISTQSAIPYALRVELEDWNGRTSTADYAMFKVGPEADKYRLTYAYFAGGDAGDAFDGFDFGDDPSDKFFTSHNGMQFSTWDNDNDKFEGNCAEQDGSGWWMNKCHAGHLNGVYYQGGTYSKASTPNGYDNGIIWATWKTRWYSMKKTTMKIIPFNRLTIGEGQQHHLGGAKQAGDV

T2: fibrinogen (UniProt P02671 20-629; P02675 31-491; P02679 27-437, limits assumed)
T2 construct: Biotinylated and immobilised through streptavidin for ELISA
T2 sequence (looked up) 1: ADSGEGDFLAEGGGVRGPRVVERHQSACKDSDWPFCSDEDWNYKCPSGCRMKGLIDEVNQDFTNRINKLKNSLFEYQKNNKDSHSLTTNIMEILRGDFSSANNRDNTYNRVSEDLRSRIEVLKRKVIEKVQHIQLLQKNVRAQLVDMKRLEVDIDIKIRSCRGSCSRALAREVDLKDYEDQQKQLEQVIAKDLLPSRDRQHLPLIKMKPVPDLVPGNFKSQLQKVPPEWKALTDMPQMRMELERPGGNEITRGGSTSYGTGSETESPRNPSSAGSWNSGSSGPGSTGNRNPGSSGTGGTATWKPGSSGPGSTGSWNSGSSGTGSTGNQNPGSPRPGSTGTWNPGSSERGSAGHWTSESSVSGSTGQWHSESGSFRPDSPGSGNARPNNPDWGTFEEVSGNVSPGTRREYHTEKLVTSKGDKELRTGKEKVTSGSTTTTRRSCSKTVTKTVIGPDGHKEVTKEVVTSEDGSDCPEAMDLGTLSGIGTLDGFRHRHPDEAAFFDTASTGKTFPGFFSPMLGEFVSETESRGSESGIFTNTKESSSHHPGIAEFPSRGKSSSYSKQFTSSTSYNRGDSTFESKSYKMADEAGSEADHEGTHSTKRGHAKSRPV
T2 sequence (looked up) 2: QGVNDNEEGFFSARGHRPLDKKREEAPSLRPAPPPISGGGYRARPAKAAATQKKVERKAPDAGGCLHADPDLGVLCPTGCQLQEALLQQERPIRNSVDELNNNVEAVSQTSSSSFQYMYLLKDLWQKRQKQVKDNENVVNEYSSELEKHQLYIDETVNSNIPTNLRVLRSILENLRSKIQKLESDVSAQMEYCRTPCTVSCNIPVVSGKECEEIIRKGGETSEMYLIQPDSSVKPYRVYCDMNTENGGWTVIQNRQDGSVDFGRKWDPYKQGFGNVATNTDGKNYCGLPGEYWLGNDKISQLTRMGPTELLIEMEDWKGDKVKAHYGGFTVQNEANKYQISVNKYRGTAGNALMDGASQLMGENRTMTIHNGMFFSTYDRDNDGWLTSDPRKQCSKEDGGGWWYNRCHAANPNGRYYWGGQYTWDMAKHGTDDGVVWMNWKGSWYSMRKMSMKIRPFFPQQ
T2 sequence (looked up) 3: T1 sequence (looked up) 3

B1: synthetic fibrin-binding peptide DX-303 (peptide)
peptide: Ac-WQPCPWESWTFCWDPGGGK(fluorescein)-NH2
modifications: not fully specified; printed as Ac-WQPCPWESWTFCWDPGGGK(fluorescein)-NH2; cysteine pairing not given here
B2: synthetic fibrin-binding peptide DX-304 (peptide)
peptide: Ac-WAPCQEEPWLFCFHGGGGK(fluorescein)-NH2
modifications: not fully specified; printed as Ac-WAPCQEEPWLFCFHGGGGK(fluorescein)-NH2; cysteine pairing not given here
B3: synthetic peptide DX-101 (peptide)
peptide: AEGTGSQWECPYGLCWIQAPGK
modifications: not fully specified (bridges); printed as Ala-Glu-Gly-Thr-Gly-Ser-Gln-Trp-Glu-Cys-Pro-Tyr-Gly-Leu-Cys-Trp-Ile-Gln-Ala-Pro-Gly-Lys; cysteine pairing not given here
B4: phage isolate 002-35-E01 (peptide)
peptide: WELCSDENWLWCWPH
modifications: not fully specified (bridges); cysteine pairing not given here; also: displayed on M13 phage
notes: The two Cys are believed to form a disulfide
B5: phage isolate 002-36-A02 (peptide)
peptide: WMMCPMSEWLYCWSA
B6: phage isolate 002-37-C11 (peptide)
peptide: WQPCPWESWTFCWDP
B7: phage isolate 002-37-D02 (peptide)
peptide: WAPCQEEPWLFCFHG
B8: phage isolate 002-37-H02 (peptide)
peptide: WKACPGEDWLFCWGS
B9: phage isolate 002-36-H04 (peptide)
peptide: RAPCDYYGTCVEL

Legend:
[1] = biological target: DD(E), soluble fibrin-derived polypeptide (complex of DD dimer with the central E domain of fibrin) (human) (UniProt P02671); experiment: fluorescence anisotropy (polarization): fluorescein-labeled peptide titrated with DD(E) protein
[2] = biological target: DD(E), soluble fibrin-derived polypeptide (complex of DD dimer with the central E domain of fibrin) (human) (UniProt P02671); experiment: fluorescence polarization (anisotropy), fluorescein-labeled peptide with DD(E)
fibrin = biological target: T1, fibrin; experiment: equilibrium binding to dried fibrin plates, free peptide measured by mass spectrometry
Protocol: A fibrinogen solution was prepared at 10 mg/ml (or at twice the concentration of fibrin desired) in TBS buffer (50 mM Tris, 150 mM NaCl, pH 7.4). The fibrinogen solution typically contained ˜17 mM citrate. Subsequently, a solution was prepared containing 2 U/ml thrombin, 20 mM CaCl₂, and 5 mM ε-aminocaproic acid in TBS. The fibrinogen solution and thrombin solution were mixed 1:1 in the wells of a 96-well plate, aliquoting 50 μL of each solution in each well (total volume=100 μL). The plates were evaporated to dryness overnight at 37° C. The polypeptide to be tested, dissolved in water, was added to each well at concentrations between 1-200 μM. […] The plate containing the peptide and (rehydrated) dried fibrin was covered and incubated at 37° C. on a shaker table for 2 hours.
The supernatant in each well was removed by pipette and the concentration of the polypeptide was measured by mass spectrometry. The ion current detected at the mass of the peptide was monitored after injection of a sample into the mass spectrometer. The area-under-the-peak was quantified and compared to standards of known concentration. The concentration of peptide in the supernatant is equal to the concentration of free peptide. The concentration of bound peptide was determined by subtracting the concentration of free peptide from the total (starting) concentration. […]

fibrinogen = biological target: T2, fibrinogen; experiment: phage ELISA on immobilised fibrinogen
Protocol: After five rounds of selection, the eluted phage were propagated and a portion plated to isolate phage plaques arising from individual clones. Ninety such clones were selected randomly, propagated, and tested individually for binding to fibrin in a dried fibrin plate assay. Dried fibrin plates were prepared as described above for the library screening. Phage samples (˜10⁹ phage each) were incubated in the dried fibrin plate wells in binding buffer (50 mM Tris, 150 mM NaCl, 2 mM CaCl₂, 0.05% Tween-20) containing 0.1% HSA. After 1 hour, the plates were washed 5 times with binding buffer. Anti-M13 antibody conjugated to horseradish peroxidase (Pharmacia) was added at 1/5000 dilution in binding buffer to the wells and incubated with the fibrin for 1 hour. The wells were again washed 5 times with binding buffer and the presence of the antibody/phage/fibrin complex was measured with HRP calorimetric reagents (3,3′,5,5′-tetramethylbenzidine (TMB) and […]). A high absorbance at 595 nm (due to oxidized TMB) was indicative of a tight phage/fibrin interaction, and phage clones corresponding to those wells were identified as bearing fibrin-binding moieties.
These fibrin-binding positive clones were subjected to several secondary ELISA assays. These assays followed a similar protocol to that detailed above for the dried fibrin ELISA assay, the only variations being the method of target immobilization and the omission of HSA from binding and wash buffers. A screen against DD(E) acted as a further confirmation of fibrin binding activity. […] Finally, ELISAs to assay binding to immobilized HSA (passively bound to the polystyrene plate) and a target-free microtiter plate were controls to eliminate phage that bound promiscuously or nonspecifically.
The ELISAs were performed as described above.

Binder	binding result (fibrinogen)	other results
B1	–	Kd [1]: 500 nM; Kd [2]: 500 nM
B2	–	Kd [1]: 350 nM; Kd [2]: 400 nM
B3	–	Kd (fibrin): 700 nM
B4	no binding	–
B5	no binding	–
B6	no binding	–
B7	no binding	–
B8	no binding	–
B9	no binding	–
